The target in assay [1] is NCK1 (prey, CIC format) (human) (UniProt P16333). The assay is described as follows: SIMPL ELISA, bait-IN/prey-CIC. (In an ELISA, binding on a coated surface is turned into a signal by an enzyme label.)
In assay [2] the target is FGFR1 (prey, CIC format) (human) (UniProt P11362). Description: SIMPL ELISA, bait-IN/prey-CIC.
Assay [3] addresses T1, RB1 (prey, CIC format) (human) (UniProt P06400).
T1 sequence (looked up): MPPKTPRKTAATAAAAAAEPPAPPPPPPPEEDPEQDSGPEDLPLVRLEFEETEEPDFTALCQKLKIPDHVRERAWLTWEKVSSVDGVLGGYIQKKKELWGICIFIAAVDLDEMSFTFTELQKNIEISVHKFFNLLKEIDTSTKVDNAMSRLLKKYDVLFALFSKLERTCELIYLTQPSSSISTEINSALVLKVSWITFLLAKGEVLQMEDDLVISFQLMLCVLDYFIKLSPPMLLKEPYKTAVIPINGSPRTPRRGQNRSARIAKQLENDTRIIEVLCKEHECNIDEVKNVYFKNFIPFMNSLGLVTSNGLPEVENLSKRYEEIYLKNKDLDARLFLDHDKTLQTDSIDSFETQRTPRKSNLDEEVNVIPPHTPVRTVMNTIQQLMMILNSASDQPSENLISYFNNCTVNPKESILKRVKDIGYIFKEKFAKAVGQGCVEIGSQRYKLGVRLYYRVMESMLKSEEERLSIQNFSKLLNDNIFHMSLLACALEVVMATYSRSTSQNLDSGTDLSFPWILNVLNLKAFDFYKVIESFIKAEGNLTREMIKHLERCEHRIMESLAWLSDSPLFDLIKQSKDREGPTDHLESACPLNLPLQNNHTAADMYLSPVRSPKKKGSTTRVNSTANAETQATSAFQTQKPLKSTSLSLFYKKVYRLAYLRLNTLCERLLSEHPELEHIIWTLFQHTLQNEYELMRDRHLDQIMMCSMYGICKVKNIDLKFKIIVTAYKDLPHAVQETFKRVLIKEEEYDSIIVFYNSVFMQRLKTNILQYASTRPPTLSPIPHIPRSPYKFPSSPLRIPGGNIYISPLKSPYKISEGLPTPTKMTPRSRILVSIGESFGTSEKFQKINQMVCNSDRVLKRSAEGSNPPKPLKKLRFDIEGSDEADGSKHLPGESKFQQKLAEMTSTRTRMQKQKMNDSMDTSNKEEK
Description: SIMPL ELISA, bait-IN/prey-CIC.

The target in assay [4] is SKP2 (prey, CIC format) (human) (UniProt Q13309). The assay is described as follows: SIMPL ELISA, bait-IN/prey-CIC.
For assay [5], the target named is T2, ARFIP2 (prey, CIC format) (human) (UniProt P53365).
T2 sequence (looked up): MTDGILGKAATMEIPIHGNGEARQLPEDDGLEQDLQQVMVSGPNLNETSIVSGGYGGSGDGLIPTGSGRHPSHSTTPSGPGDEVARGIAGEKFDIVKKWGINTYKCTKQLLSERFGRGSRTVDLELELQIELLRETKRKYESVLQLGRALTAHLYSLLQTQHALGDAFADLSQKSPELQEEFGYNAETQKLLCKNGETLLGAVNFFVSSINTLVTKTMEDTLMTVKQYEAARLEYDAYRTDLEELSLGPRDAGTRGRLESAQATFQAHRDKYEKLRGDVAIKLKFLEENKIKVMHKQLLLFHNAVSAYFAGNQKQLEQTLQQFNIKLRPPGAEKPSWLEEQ
Description: SIMPL ELISA, bait-IN/prey-CIC.

Assay [6] has as its target SMAD4 (prey, CIC format) (human) (UniProt Q13485). The assay is described as follows: SIMPL ELISA, bait-IN/prey-CIC.
Assay [7] has as its target CXCR2 (prey, CIC format) (human) (UniProt P25025). The assay is described as follows: SIMPL ELISA, bait-IN/prey-CIC.
The target of assay [8] is RAP1A (prey, CIC format) (human) (UniProt P62834). Description: SIMPL ELISA, bait-IN/prey-CIC.
Assay [9] has as its target CCNA1 (prey, CIC format) (human) (UniProt P78396). Description: SIMPL ELISA, bait-IN/prey-CIC.
In assay [10] the target is T3, PEX11B (prey, CIC format) (human) (UniProt O96011).
T3 sequence (looked up): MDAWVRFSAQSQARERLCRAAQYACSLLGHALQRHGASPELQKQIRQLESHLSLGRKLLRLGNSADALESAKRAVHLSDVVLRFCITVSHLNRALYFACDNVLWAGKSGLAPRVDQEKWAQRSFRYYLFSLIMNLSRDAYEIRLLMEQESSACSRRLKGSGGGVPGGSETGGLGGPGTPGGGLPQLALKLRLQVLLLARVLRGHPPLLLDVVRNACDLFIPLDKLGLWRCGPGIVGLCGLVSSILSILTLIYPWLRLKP
Description: SIMPL ELISA, bait-IN/prey-CIC.

The target in assay [11] is FOS (prey, CIC format) (human) (UniProt P01100). The assay is described as follows: SIMPL ELISA, bait-IN/prey-CIC.
The target in assay [12] is T4, NRG1 (prey, CIC format) (human) (UniProt Q02297).
T4 sequence (looked up): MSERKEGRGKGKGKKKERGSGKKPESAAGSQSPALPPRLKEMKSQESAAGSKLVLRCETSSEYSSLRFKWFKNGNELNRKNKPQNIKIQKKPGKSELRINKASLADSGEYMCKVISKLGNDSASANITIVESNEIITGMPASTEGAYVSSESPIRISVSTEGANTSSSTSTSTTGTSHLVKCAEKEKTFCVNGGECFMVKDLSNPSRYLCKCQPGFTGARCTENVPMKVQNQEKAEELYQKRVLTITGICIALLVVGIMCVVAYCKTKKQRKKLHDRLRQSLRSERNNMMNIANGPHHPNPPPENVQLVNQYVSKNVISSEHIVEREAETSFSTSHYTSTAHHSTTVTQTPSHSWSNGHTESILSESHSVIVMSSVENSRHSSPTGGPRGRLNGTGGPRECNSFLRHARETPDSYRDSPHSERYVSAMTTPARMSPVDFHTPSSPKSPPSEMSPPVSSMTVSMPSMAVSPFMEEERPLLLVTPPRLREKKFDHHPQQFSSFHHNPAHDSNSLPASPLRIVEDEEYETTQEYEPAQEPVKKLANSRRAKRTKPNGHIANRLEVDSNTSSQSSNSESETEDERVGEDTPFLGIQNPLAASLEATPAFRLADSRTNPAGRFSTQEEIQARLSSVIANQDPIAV
Description: SIMPL ELISA, bait-IN/prey-CIC.

The target in assay [13] is PEX16 (prey, CIC format) (human) (UniProt Q9Y5Y5). Description: SIMPL ELISA, bait-IN/prey-CIC.
Assay [14] concerns the target RAD23A (prey, CIC format) (human) (UniProt P54725). Description: SIMPL ELISA, bait-IN/prey-CIC.
Assay [15] deals with SKR-2 (C. elegans prey, IC format) (C. elegans). Description: SIMPL ELISA, C. elegans lysate, IN/IC; ratio of spliced signal to total signal.
The target of assay [16] is SRC (prey, CIC format) (human) (UniProt P12931). The assay is described as follows: SIMPL ELISA, bait-IN/prey-CIC.
Assay [17] concerns the target NFE2L1 (prey, CIC format) (human) (UniProt Q14494). The assay is described as follows: SIMPL ELISA, bait-IN/prey-CIC.
Assay [18] has as its target T5, NOD1 (prey, CIC format) (human) (UniProt Q9Y239).
T5 sequence (looked up): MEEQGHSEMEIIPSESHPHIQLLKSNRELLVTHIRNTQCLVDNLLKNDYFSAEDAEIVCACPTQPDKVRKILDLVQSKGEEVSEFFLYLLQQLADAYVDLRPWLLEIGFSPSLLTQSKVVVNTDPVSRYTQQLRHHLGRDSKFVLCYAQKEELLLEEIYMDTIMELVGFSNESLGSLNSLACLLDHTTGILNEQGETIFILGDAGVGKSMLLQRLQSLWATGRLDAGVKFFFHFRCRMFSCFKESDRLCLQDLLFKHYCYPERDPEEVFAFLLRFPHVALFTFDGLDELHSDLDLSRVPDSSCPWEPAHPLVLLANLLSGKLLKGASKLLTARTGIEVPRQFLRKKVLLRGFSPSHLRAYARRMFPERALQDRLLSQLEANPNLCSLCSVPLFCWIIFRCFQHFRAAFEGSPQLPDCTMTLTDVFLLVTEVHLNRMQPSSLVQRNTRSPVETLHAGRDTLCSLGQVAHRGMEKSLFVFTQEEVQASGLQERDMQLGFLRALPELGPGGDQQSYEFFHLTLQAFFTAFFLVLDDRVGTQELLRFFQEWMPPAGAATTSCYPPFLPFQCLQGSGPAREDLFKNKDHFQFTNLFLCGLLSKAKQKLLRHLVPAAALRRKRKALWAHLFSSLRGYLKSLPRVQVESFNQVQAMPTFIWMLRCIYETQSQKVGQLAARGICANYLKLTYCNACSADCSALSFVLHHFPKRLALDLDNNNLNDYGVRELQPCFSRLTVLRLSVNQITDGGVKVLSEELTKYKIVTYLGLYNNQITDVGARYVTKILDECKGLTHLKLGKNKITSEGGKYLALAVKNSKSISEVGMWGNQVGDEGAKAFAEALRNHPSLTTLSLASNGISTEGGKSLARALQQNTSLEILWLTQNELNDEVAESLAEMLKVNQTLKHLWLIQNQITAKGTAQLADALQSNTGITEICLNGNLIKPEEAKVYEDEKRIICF
The assay is described as follows: SIMPL ELISA, bait-IN/prey-CIC.

Assay [19] addresses IGFBP4 (prey, CIC format) (human) (UniProt P22692). The assay is described as follows: SIMPL ELISA, bait-IN/prey-CIC.
Assay [20] addresses PDGFRB (prey, CIC format) (human) (UniProt P09619). The assay is described as follows: SIMPL ELISA, bait-IN/prey-CIC.
The target of assay [21] is SKR-2 (C. elegans prey, CIC format) (C. elegans). The assay is described as follows: SIMPL ELISA, C. elegans lysate, IN/CIC; ratio of spliced signal to total signal.
Assay [22] concerns the target CDK6 (prey, CIC format) (human) (UniProt Q00534). Description: SIMPL ELISA, bait-IN/prey-CIC.
The target of assay [23] is HGS (prey, CIC format) (human) (UniProt O14964). The assay is described as follows: SIMPL ELISA, bait-IN/prey-CIC.
Assay [24] has as its target RPA3 (prey, CIC format) (human) (UniProt P35244). Description: SIMPL ELISA, bait-IN/prey-CIC.
Assay [25] addresses HSP90AA1 (prey, CIC format) (human) (UniProt P07900). The assay is described as follows: SIMPL ELISA, bait-IN/prey-CIC.

This passage reports PLU mean, ELISA Value Replicate 1 and ELISA Value Replicate 2 results from US20220229068A1, “DETECTION OF PROTEIN TO PROTEIN INTERACTIONS” (THE GOVERNING COUNCIL OF THE UNIVERSITY OF TORONTO, priority 2019, published 2022).

Chain of FOS (prey, CIC format) (human) (P01100 whole entry): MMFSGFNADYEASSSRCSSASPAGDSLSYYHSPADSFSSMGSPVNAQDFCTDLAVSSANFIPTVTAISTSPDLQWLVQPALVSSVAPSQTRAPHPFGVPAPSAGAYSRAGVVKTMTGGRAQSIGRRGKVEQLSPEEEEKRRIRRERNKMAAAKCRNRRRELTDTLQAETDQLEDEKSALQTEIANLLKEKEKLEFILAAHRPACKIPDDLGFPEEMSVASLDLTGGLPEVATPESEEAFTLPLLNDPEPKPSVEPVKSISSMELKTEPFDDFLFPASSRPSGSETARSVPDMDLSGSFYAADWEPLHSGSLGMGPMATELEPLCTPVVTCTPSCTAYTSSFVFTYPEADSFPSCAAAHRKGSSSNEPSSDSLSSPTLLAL
Chain of RIPK2 (bait, IN format) (O43353 whole entry): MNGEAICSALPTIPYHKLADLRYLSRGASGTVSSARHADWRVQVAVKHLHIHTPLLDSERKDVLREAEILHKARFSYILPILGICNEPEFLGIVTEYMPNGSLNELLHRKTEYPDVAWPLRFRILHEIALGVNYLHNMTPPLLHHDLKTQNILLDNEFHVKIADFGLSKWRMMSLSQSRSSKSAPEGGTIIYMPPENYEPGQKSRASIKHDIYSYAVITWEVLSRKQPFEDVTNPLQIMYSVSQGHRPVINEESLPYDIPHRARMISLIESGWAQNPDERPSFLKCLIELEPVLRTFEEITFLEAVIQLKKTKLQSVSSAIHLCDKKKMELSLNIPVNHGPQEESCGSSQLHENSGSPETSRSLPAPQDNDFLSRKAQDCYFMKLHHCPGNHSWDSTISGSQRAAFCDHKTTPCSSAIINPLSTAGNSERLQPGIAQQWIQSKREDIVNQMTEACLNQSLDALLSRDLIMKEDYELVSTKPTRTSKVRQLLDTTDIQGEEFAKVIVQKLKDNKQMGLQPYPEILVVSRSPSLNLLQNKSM
Chain of PEX16 (prey, CIC format) (human) (Q9Y5Y5 whole entry): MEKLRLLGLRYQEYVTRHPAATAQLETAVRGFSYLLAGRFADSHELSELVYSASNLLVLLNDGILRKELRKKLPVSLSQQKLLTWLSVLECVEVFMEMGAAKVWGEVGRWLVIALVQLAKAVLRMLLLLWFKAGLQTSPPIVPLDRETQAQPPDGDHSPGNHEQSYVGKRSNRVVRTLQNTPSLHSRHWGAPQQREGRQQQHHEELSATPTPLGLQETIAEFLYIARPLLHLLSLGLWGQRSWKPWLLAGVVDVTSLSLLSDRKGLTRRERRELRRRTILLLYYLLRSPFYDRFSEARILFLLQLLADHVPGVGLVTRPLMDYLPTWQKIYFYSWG
Chain of RAP1A (prey, CIC format) (human) (P62834 whole entry): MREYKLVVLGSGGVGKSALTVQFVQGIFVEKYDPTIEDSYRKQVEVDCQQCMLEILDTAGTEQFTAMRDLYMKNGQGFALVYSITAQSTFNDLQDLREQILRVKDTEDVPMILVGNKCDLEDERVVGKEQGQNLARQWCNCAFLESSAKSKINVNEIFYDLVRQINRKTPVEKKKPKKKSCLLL
Chain of IGFBP4 (prey, CIC format) (human) (P22692 22-258 limits assumed): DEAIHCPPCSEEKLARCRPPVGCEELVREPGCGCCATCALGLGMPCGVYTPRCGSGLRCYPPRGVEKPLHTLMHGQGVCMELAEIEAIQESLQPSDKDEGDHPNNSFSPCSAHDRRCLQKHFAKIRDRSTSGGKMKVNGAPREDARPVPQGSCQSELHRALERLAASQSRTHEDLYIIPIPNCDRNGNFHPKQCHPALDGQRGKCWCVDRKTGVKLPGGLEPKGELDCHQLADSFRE
Chain of FGFR1 (prey, CIC format) (human) (P11362 22-822 limits assumed): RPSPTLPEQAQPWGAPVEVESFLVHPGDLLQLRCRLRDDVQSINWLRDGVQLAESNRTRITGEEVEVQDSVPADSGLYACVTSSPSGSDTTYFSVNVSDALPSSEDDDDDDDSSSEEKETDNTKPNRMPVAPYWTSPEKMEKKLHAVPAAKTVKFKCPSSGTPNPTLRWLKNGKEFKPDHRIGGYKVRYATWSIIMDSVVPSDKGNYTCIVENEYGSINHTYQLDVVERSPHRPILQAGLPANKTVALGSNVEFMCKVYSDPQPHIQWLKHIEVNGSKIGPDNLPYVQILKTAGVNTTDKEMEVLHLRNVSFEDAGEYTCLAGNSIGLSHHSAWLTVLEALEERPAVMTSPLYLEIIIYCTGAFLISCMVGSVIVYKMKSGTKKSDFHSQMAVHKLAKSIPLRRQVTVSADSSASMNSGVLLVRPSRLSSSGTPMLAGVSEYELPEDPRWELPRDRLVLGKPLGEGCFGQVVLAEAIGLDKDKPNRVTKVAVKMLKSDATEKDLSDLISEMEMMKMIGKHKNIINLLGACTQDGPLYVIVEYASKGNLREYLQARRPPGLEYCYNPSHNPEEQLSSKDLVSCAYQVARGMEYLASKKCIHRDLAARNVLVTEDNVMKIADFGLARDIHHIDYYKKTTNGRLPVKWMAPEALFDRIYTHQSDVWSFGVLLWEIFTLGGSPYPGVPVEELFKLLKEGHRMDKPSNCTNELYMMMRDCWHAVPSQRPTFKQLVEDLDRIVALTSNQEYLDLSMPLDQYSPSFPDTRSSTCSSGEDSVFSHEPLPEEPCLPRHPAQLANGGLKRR
Chain of SMAD4 (prey, CIC format) (human) (Q13485 whole entry): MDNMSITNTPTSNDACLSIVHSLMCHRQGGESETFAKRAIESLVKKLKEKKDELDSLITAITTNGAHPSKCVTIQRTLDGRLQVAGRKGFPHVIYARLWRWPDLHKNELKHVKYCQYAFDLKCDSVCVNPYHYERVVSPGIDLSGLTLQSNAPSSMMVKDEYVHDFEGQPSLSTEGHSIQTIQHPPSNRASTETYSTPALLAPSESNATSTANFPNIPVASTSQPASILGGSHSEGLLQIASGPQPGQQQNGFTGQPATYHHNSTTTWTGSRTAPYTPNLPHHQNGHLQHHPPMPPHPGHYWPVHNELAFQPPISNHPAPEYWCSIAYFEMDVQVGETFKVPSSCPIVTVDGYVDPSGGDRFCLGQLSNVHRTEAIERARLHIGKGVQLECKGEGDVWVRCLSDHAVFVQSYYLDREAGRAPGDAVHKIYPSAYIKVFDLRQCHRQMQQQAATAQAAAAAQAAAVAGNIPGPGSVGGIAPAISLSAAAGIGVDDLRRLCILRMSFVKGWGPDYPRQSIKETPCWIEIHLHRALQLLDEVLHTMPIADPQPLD
Chain of RPA3 (prey, CIC format) (human) (P35244 whole entry): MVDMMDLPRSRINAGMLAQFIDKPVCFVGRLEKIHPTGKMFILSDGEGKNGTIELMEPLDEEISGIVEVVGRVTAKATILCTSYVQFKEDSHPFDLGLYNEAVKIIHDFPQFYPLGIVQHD
Chain of HGS (prey, CIC format) (human) (O14964 whole entry): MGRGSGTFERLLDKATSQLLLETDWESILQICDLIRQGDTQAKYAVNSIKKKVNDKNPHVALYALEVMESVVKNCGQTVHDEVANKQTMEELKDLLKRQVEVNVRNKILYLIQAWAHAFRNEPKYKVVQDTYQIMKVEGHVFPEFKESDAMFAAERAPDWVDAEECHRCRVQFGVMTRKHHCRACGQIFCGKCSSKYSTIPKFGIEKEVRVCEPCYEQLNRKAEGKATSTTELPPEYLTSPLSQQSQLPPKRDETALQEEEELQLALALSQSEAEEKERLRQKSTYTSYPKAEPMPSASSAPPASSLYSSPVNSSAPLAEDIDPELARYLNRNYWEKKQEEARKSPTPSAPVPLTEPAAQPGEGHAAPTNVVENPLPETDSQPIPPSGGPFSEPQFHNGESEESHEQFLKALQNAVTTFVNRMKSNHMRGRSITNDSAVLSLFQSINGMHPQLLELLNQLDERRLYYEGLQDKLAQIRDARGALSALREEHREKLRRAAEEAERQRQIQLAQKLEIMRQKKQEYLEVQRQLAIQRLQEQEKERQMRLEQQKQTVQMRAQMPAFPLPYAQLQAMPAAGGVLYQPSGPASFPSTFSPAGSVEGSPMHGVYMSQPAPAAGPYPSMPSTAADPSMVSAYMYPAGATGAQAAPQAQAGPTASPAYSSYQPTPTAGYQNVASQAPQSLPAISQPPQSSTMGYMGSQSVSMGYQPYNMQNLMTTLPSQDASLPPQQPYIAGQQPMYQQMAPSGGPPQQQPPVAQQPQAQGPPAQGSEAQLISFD
Chain of NFE2L1 (prey, CIC format) (human) (Q14494 whole entry): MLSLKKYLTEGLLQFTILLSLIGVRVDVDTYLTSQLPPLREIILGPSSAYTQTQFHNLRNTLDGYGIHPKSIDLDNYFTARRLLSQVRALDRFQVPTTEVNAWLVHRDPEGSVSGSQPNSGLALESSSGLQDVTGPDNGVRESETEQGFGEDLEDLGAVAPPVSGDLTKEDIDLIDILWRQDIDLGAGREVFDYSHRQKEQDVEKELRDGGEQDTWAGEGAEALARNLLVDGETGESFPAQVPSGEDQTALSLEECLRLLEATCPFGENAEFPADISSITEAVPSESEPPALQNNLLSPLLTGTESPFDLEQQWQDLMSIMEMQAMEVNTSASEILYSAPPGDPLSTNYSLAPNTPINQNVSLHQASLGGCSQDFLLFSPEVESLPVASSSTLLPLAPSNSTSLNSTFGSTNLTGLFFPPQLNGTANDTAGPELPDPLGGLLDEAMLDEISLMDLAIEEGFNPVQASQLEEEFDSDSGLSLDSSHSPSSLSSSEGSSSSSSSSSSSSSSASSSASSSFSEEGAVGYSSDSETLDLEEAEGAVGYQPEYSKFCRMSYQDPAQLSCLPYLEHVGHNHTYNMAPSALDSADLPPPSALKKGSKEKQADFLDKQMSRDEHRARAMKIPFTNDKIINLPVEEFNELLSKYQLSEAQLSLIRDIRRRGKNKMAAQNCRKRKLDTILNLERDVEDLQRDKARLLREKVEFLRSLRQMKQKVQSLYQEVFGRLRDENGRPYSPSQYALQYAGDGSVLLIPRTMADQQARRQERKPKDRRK

On to “FGF1 (bait, IN format) (from UniProt P05230 1-155) (ligand)”, for which the values for the PLU mean in assay [1], in assay [2] and in [3] were 0.374, 0.334 and 0.324, respectively.

Turning to “ARF1 (bait, IN format) (from UniProt P84077 1-181)”, the PLU mean in [4] is 0.301; in [5] it was 0.491.

With “SMAD3 (bait, IN format) (from UniProt P84022 1-425)”, the PLU mean in assay [6] was determined as 0.399; in assay [7], 0.144.

In assay [8], “RAF1 (bait, IN format) (from UniProt P04049 1-648) (enzyme)” gave a PLU mean of 0.578.

Take “BAK1 (bait, IN format) (from UniProt Q16611 1-211)”: in [8], the PLU mean worked out at 0.564.

Regarding “CDKN1A (bait, IN format) (from UniProt P38936 1-164)”, the PLU mean was 0.516 in [9] and 0.113 in assay [10].

Consider “DDIT3 (bait, IN format) (from UniProt P35638 1-169)”, for which the PLU mean in assay [11] stood at 0.642; in assay [12], 0.0963.

As to “B2M (bait, IN format) (from UniProt P61769 21-119)”, the PLU mean in [13] is 0.0408; in [14], 0.0155.

On to T10E9.1 (C. elegans bait, IN-V5/HA), for which, in assay [15], the ELISA Value Replicate 1 came out at 0.78 and the ELISA Value Replicate 2 amounted to 0.55.

In assay [16], “PTK2/FAK (bait, IN format) (from UniProt Q05397 1-1052) (enzyme)” came in with a PLU mean of 0.599.

The substance “GRAP2 (bait, IN format) (from UniProt O75791 1-330)” yielded a PLU mean in [17] of 0.131.

Regarding “RIPK2 (bait, IN format) (from UniProt O43353 1-540)”, the PLU mean worked out at 1.17 in [18], 0.555 in assay [19] and 0.881 in assay [20].

Turning to “HIF1A (bait, IN format) (from UniProt Q16665 1-826)”, in assay [5], the PLU mean is 0.324.

As to “PPP3CA (bait, IN format) (from UniProt Q08209 1-521)”, the PLU mean in [11] worked out at 0.245.

“MAPK7 (bait, IN format) (from UniProt Q13164 1-816) (enzyme)”: the PLU mean in assay [13] is 0.231.

As for FBXA-215 (C. elegans bait, IN-V5/HA), the ELISA Value Replicate 1 came to 0.73 in [21] and 0.84 in [15]. In addition, the ELISA Value Replicate 2 in [21] stood at 0.42; in assay [15], 0.58.

“TNFSF10 (bait, IN format) (from UniProt P50591 1-281) (ligand)” came in with a PLU mean in [22] of 0.316.

As to FBXA-196 (C. elegans bait, IN-V5/HA), in [21], the ELISA Value Replicate 1 came out at 1.1 and the ELISA Value Replicate 2 is 0.28. For the same substance, in assay [15], the ELISA Value Replicate 1 turned out to be 0.81 and the ELISA Value Replicate 2 is 0.51.

“NF2 (bait, IN format) (from UniProt P35240 1-595)”: the PLU mean came to 0.481 in assay [11] and 0.836 in assay [23].

On to “IGF2 (bait, IN format) (from UniProt P01344 25-180) (ligand)”, for which the PLU mean in assay [24] was found to be 0.525; in assay [19] it was 0.943; in [5], 0.266; in assay [25], 0.404.
